Biological target: T1, SSBP1 (single-stranded DNA-binding protein 1, mitochondrial) (UniProt Q04837 17-148)
T1 sequence: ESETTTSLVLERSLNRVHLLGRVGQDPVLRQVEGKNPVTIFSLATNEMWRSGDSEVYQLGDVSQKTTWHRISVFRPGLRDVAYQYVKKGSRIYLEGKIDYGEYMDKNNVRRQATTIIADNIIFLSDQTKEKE
Test: fluorescence anisotropy

B1: 5x 6mA fluorescent probe (PG491/PG493) (dsDNA)
DNA 1: TATTTAACCTAAATTTCTATAAGATTATTAGTATAAAAGGG
DNA 2: CCCTTTTATACTAATAATCTTATAGAAATTTAGGTTAAATA
modifications: N6-methyldeoxyadenosine at strand 1 positions 19, 24, 27, 30, 33
binding result: binds
